Test results published in patent publication US20100055108A1.

Assays:
[1] = target: human IL-17RA (human) (UniProt Q96F46); experiment: cell-based or functional assay
[2] = target: human IL-17RC (human) (UniProt Q8NAC3); experiment: cell-based or functional assay
Chain of UniProt Q8NAC3 (Q8NAC3 21-791): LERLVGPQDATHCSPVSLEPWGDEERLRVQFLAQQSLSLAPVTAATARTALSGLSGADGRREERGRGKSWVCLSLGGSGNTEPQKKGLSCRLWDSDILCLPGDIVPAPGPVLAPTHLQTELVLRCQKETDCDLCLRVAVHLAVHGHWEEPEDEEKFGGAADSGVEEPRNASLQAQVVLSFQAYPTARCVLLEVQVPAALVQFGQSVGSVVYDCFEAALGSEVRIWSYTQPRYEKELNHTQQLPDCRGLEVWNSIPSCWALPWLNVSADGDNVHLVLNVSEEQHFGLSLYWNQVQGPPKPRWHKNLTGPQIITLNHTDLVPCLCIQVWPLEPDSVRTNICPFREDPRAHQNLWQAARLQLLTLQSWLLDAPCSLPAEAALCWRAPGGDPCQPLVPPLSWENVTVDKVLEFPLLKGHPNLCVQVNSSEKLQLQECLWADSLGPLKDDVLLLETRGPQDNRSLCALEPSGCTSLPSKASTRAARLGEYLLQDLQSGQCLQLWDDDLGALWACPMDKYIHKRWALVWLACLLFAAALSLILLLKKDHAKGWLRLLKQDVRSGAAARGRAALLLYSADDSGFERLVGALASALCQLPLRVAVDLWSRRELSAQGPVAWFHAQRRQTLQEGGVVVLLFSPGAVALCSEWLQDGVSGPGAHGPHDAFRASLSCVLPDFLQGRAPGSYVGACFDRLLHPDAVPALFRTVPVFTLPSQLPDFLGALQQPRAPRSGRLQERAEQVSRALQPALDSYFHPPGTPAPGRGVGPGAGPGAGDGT

- inhibition of IL-17A-induced activation of c-Jun (c-Jun mRNA, quantitative RT-PCR) after IL-17RA iRNA knockdown in AGS cells [1]: 80%
- inhibition of IL-17A-induced activation of p65 (DNA-binding activity, TransAM NFkB kit) after IL-17RA iRNA knockdown in AGS cells [1]: 97%
- inhibition of activation of c-Jun (c-Jun mRNA, quantitative RT-PCR) after IL-17RC iRNA knockdown in AGS cells [2]: 82%
- inhibition of activation of p65 (DNA-binding activity, TransAM NFkB kit) after IL-17RC iRNA knockdown in AGS cells [2]: 89%
Substance: recombinant human IL-17A (from UniProt Q16552 20-155) (ligand)
